Laboratory results: paper PMC12669651

Key:
[1] = O-GlcNAc at S296
[2] = cycloheximide chase, Western blot, Foxo3-KO BMSCs; conditions: glycan lost; control: wild-type Foxo3
ROS detection in BMSCs = conditions: glycan lost; control: wild-type Foxo3

B1: FOXO3: S296V (protein)
parent chain: MAEAPASPVPLSPLEVELDPEFEPQSRPRSCTWPLQRPELQASPAKPSGETAADSMIPEEDDDEDDEDGGGRASSAMVIGGGVSSTLGSGLLLEDSAMLLAPGGQDLGSGPASAAGALSGGTPTQLQPQQPLPQPQPGAAGGSGQPRKCSSRRNAWGNLSYADLITRAIESSPDKRLTLSQIYEWMVRCVPYFKDKGDSNSSAGWKNSIRHNLSLHSRFMRVQNEGTGKSSWWIINPDGGKSGKAPRRRAVSMDNSNKYTKSRGRAAKKKAALQAAPESADDSPSQLSKWPGSPTSRSSDELDAWTDFRSRTNSNASTVSGRLSPILASTELDDVQDDDGPLSPMLYSSSASLSPSVSKPCTVELPRLTDMAGTMNLNDGLAENLMDDLLDNIALPPSQPSPPGGLMQRGSSFPYTAKSSGLGSPTGSFNSTVFGPSSLNSLRQSPMQTIQENRPATFSSVSHYGNQTLQDLLASDSLSHSDVMMTQSDPLMSQASTAVSAQNARRNVMLRNDPMMSFAAQPTQGSLVNQNLLHHQHQTQGALGGSRALSNSVSNMGLSDSSSLGSAKHQQQSPASQSMQTLSDSLSGSSLYSASANLPVMGHDKFPSDLDLDMFNGSLECDMESIIRSELMDADGLDFNFDSLISTQNVVGLNVGNFTGAKQASSQSWVPG
- degradation_or_half_life [1]: decreases, half-life from 24 hours to 12 hours
- degradation_or_half_life, half_life [2]: decreases, 12 vs 24
- other: cellular ROS level (ROS detection in BMSCs): increases
